Consider one molecule from PMC6426840.

For this test, the target named is recombinant human matrix metalloproteinase-2 (rh-proMMP2 activated with APMA) (human) (UniProt P08253).
Chain of UniProt P08253 (P08253 30-660): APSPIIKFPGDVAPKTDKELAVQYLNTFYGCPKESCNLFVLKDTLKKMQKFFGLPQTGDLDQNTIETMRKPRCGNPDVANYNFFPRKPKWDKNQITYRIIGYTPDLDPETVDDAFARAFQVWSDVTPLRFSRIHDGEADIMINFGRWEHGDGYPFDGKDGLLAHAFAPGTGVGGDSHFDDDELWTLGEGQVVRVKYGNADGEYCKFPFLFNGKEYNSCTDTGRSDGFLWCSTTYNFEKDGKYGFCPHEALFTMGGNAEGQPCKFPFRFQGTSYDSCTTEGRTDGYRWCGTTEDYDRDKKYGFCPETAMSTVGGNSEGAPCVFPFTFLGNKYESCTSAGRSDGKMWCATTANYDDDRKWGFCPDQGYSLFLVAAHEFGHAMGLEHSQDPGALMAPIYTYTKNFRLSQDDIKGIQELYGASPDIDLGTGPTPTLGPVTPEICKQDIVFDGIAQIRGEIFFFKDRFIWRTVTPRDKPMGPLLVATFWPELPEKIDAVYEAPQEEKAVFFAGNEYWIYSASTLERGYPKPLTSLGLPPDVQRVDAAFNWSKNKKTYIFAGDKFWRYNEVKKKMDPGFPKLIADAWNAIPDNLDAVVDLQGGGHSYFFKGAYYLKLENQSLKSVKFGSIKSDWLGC

B1: recombinant human tissue inhibitor of metalloproteinases 3 (natural protein)
chain: CTCSPSHPQDAFCNSDIVIRAKVVGKKLVKEGPFGTLVYTIKQMKMYRGFTKMPHVQYIHTEASESLCGLKLEVNKYQYLLTGRVYDGKMYTGLCNFVERWDQLTLSQRKGLNYRYHLGCNCKIKSCYYLPCFVTSKNECLWTDMLSNFGYPGYQSKHYACIRQKGGYCSWYRGWAPPDKSIINATDP
B1: the MMP2 enzyme activity left (fluorogenic peptide MCA-Pro-Leu-Ala-Nva-Dpa-Ala-Arg-NH2, endpoint after 5 h) with 100 ng/mL rhMMP2 and 40 ng/mL rhTIMP3, molecular ratio about 1:1, without GAG was 15%; the TIMP3-induced inhibition of MMP2 enzyme activity when hyaluronan (HA, 200 µg/mL) is added to MMP2 and TIMP3 pre-incubated for 30 min at 25 °C; change against the control without GAG is 5%.
